# Measured values from patent US12497460B2, “Anti-MSR1 antibodies and methods of use thereof” (REGENERON PHARMACEUTICALS, INC., priority 2018, dated 2025).
# Substitutions are numbered along the chain they refer to. Names and notes keep the numbering of the source.
# T1: HEK293.Myc.hMSR1 cells (human MSR1) (Homo sapiens, UniProt P21757)
# T1 construct: expressed in transfected cells; host or cells: HEK293 (lentiviral transduction, hygromycin selection)
# T1 sequence (P21757 1-451): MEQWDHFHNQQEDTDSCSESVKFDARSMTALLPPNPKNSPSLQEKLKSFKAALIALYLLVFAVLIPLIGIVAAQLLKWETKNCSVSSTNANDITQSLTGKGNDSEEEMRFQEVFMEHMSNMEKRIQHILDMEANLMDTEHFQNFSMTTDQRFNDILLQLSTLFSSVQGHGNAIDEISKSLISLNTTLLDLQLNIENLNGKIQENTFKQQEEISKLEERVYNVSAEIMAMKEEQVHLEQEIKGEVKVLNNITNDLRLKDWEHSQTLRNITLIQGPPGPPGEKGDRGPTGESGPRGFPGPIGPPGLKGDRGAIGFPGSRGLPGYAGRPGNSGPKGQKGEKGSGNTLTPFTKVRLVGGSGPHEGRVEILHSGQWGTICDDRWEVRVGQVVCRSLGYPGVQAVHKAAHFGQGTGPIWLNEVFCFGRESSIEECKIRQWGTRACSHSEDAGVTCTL
# T2: MSR1-mediated Dil-AcLDL uptake in HEK293.Myc.hMSR1 cells (Homo sapiens, UniProt P21757)
# T2 construct: expressed in transfected cells; host or cells: HEK293 (lentiviral transduction, hygromycin selection)
# T2 sequence (P21757 1-451): T1 sequence (P21757 1-451)
# T3: MSR1 on differentiated THP-1 cells (Homo sapiens, UniProt P21757)
# T3 construct: endogenous in cells; host or cells: THP-1 cells differentiated with PMA
# T3 sequence (P21757 1-451): T1 sequence (P21757 1-451)
# B1: H1H21227N-N297D: "The 21227N antibody was also produced as a third version with a N297D mutation" (antibody, V domains shown)
# VH: QVQLVQSGAEVKKPGASVKVSCKVSGYTLTELSIHWVRQVPGKGLEWMGGFDPEEGETIFAQEFRDRVTLTEDTSPDTAYMELSSLKSEDAAVYYCTTPRYCNNGICYDYWGQGTLVTVSS
# VL: DIQMTQSPSSLSASVGDRVTITCRASQSISNYLNWYQQKPGKAPKLLIYTASSLQSGVPSRFSGSGSGTDFTLTISSLQTEDFATYYCQQSYSNFPITFGQGTRLEIKR
# B2: H1H27739P-N297Q: anti-MSR1 antibody "made with an N297Q single point mutation in human Fcγ portion" (antibody, V domains shown)
# VH: EVQLVESGGGLVQPGGSLRLSCTASGFTFSSYAMSWVRQAPGKGLEWVSAISGTGSSTYFTDSVKGRFAISRDNSKNTLYLQMNSLRAEDTAVYYCAKDGEWLSTVTLFDYWGQGTLVTVSS
# VL: EIVMTQSPATLSVSPGERATLSCRASQSVSSNLAWYQQKPGQAPRLLIYGASTRATGIPARFSGSGSGTDFTLTISSLQSEDFALYYCQQYFIWPPHPTFGPGTKVDIKR
# B3: H1H27731P-N297Q: one of "Twelve anti-MSR1 antibodies"; "made with an N297Q single point mutation in human Fcγ portion" (antibody, V domains shown)
# VH: QLQLQESGPGLVKPSETLSLTCTVSGGSISRISYYWGWIRQPPGKGLEWIGSIYDSGSTYYNPSLKSRVTISIDTSKNQFSLKLSSVTAADTAVYYCVRYSSSSAFAFDYWGQGTLVTVSS
# VL: DIQMTQSPSSVSASVGDRVTITCRASQGISSWLAWYQQKPGKAPKLLIYAASSLQSGVPSRFSGSGSGTDFTLTISSLQPEDFATYYCQQANSFPFTFGPGTKVDIKR
# B4: H1H27754P-N297Q: one of "Twelve anti-MSR1 antibodies"; "made with an N297Q single point mutation in human Fcγ portion" (antibody, V domains shown)
# VH: EVQLVESGGGLVQPGGSLRLSCAASGFTFRTYAMTWVRQAPGKGLDWVSAITGDGGNTYYADSVKGRFTISRDNSKNTLYLQMNSLRAEDTAIYYCAKDQRFSFALYYFDYWGQGTLVTVSS
# VL: B3 VL with K42N, S52F, S93N, F96W, P100Q, D105E
# B5: H1H27747P-N297Q (antibody, V domains shown)
# VH: QVQLVESGGAVVQPGRSLRLSCAASGFTFSYYGMHWVRQAPGKGLEWVAVISYDGSKKYYADSVKGRFTISRDNSKNTLYLQMNSLRAEDTAVYYCAKDLTVDFYYGMDVWGQGTTVTVSS
# VL: B3 VL with A51T, V58A, Y87F, F96Y, P100Q, V104L, D105E
# B6: H1H21231N-N297Q: modified version of "21231N (H1H21231N-N297Q) anti-MSR1 antibodies" with "a N297Q single point mutation" (antibody, V domains shown)
# VH: EVQLVESGGGLVQPGGSLRLSCAASGFTFSDHYMDWVRQAPGKGLEWVGRTRNKANSHTTEYTASVTGRFTISRDDSRNSLYLQMNSLKTEDTAVYYCVRAGIIGTLFDYWGQGTLVTVSS
# VL: B1 VL with S7F, N31S, Y32F, Y36F, L46F, T50A, T80P, N94S, F95P
# B7: H1H27729P-N297Q: anti-MSR1 antibody "made with an N297Q single point mutation in human Fcγ portion" (antibody, V domains shown)
# VH: QVQLVESGGGLVKPGGSLRLSCAASGFIFSDYYMSWIRQAPGKGLEWVSYISSSGTTIYGDSVKGRFTMSRDNAKNSLYLQMNSLRAEDTAVYYCARNYALFDYWGQGTLVTVSS
# VL: DIQMTQSPSSLSASVGDRVTITCQASQDISKYLNWYQQKPGKAPKLLIYYTSNLETGVPSRFSGSGSGTDFTFTISSLQPEDIATYYCHQSDYLPFTFGPGTKVDIKR
# B8: H1H27734P-N297Q: one of "Twelve anti-MSR1 antibodies"; "made with an N297Q single point mutation in human Fcγ portion" (antibody, V domains shown)
# VH: EVQLVESRGGLVQPGGSLRLSCAASGFTFSSYAMSWVRQAPGKGLEWVSAISGSGGSTFYADSVKGRFTISRDNSKNTVYLQMNSLRAEDTAVYYCAKALVLRFLEWLGDYWGQGTLVTVSS
# VL: DIQMTQSPSTLSASVGDRVTITCRASQSISSWLAWFQQKPGKAPKLLIYKASSLESGVPSRFSGSGSGTEFTLTISSLQPDDFATYYCQQYKSYWTFGQGTKVEIKR
# Biological target: T1, HEK293.Myc.hMSR1 cells (human MSR1)
# Experiment: Electrochemiluminescence antibody binding assay on MSR1-expressing cells
# Format: cell-based
# Settings: not given
row,"Ratio of 11 nM Antibody Binding Signal (RLU) to isotype control, HEK293.Myc.hMSR1",Molecule
1,34,B1

# System: B16F10.9 cells (MSR1 negative)
# Experiment: Flow cytometry binding, MSR1 negative cells
# Format: cell-based, mouse
# Settings: 10 μg/mL antibody
# Description: Relative cell surface binding of the anti-MSR1 antibodies to mouse MSR1 expressing cells was determined by flow cytometry using MSR1 positive RAW264.7 cells (ATCC, Catalog #TIB-71) and MSR1 negative B16F10.9 cells (Lin et al. 1998. PNAS 95:8829-8834). For the assay, cells were plated in PBS without calcium and magnesium (VWR Cat #45000-446) and 2% FBS (Saradigm Cat #1500-500) (Staining Buffer) in 96 well V-bottom plates (Axygen Scientific, Cat #P-96-450-V-C-S). To block binding to Fc receptors, RAW264.7 cells were incubated for 30 minutes at 4° C. with 500 μg/mL mouse IgG (Jackson ImmunoResearch, Cat #015-000-003) diluted in staining buffer, while B16F10.9 cells remained in staining buffer. Following Fc receptor blocking, 10 μg/mL of anti-MSR1 antibodies or an isotype control antibody were added to the cells and were subsequently incubated for 30 minutes on ice. For a positive control, a commercial anti-mouse MSR1 (Sino Biological, Cat #50129-R004) antibody was used, while a rabbit IgG antibody (Thermo Scientific, Cat #26102) was used as a negative control. […] Cells were subsequently washed and fixed using a 50% solution of Cytofix (BD Biosciences, Cat #554655) diluted in PBS. […] The signal to noise (S/N) was determined by calculating the ratio of the anti-MSR1 antibodies or the control antibodies MFI to the unstained sample MFI (Table 11).
row,Molecule,B16F10.9 MFI
1,B2,3580
2,B3,3688
3,B4,4091
4,B5,3875
5,B6,3374
6,B7,3459
7,B8,4505

# Biological target: T2, MSR1-mediated Dil-AcLDL uptake in HEK293.Myc.hMSR1 cells
# Experiment: Ligand uptake assay, Dil-AcLDL
# Format: cell-based
# Settings: 10 μg/mL Dil-AcLDL
# Description: A bioassay was generated to assess the ability of the exemplary anti-MSR1 antibodies to regulate the uptake of certain MSR1 ligands.
# Generation of MSR1-expressing cell lines for assay. […] The resulting cell line, referred to here as “HEK293.Myc.hMSR1”, was selected and maintained in DMEM containing 10% FIBS, NEAA, penicillin/streptomycin, L-glutamine, and 100 μg/mL hygromycin.
# Ligand uptake assay. […] After 30 minutes, either oxidized or acetylated low-density lipoprotein (LDL) labeled with 1,1′dioctadecyl-3,3,3′,3′-tetramethylindocarbocyanine perchlorate (referred to as “Dil-OxLDL” or “Dil-AcLDL,” respectively) was added to the cells at a constant concentration of 10 μg/mL. […] Results were analyzed using nonlinear regression (4-parameter logistics) with the Prism 7 program to obtain EC50 and IC50 values. The percentage of inhibition was calculated with the Relative Fluorescent Unit (RFU) values by using the following equation: […]
# In the equation, “RFUBaseline” is the fluorescence value from the cells treated with 10 μg/mL ligand without antibodies, “RFUInhibition” is the minimum fluorescence value with for a particular antibody with 10 μg/mL ligand, and “RFUBackground” is the fluorescence value from cells without any ligand or antibodies.
Dil-Acetylated LDL IC50,maximum inhibition of Dil-AcLDL uptake,Molecule
no inhibition,no inhibition,B2
no inhibition,no inhibition,B8

# Same assay, conditions: maximum inhibition, 10 μg/mL Dil-AcLDL
row,Dil-Acetylated LDL % Inhibition,Molecule
1,no inhibition,B2
2,62%,B6
3,no inhibition,B8

# Biological target: T3, MSR1 on differentiated THP-1 cells
# Experiment: Binding and internalization of cell-surface expressed MSR1 in differentiated THP-1 cells
# Format: cell-based
# Settings: 10 μg/mL antibody
# Description: Exemplary anti-MSR1 antibodies were assessed for their ability to bind and internalize MSR1 on MSR1-expressing cells.
# The THP-1 cells were allowed to differentiate for 4 days at 37° C. in 5% CO2. […] The remaining two plates were incubated at 37° C. for 1 hour followed by fixation and staining for 20 minutes using a solution of 4% PFA+5 μM DRAQ5 diluted in PBS (internalization plates). After fixation, all plates were washed once with PBS. […] The remaining plates were incubated with PBS only. Confocal images were acquired on the Opera Phenix (Perkin Elmer) at 40× magnification. […] The total binding at 4° C. (RFU values of 4° C. unquenched wells), total binding at 37° C. (RFU values of 37° C. unquenched wells), the total internalized RFU, and % Internalization were determined for each antibody as shown in Table 14.
# For all calculations, background fluorescence from unstained wells was subtracted from every well. Total internalized RFU was calculated as follows: Total RFU of 37° C. unquenched samples−Surface RFU at 37° C. Surface RFU is defined as unquenched RFU at 37° C.−quenched RFU at 37° C.)/QE. QE (quenching efficiency) is defined as: 1−(Total RFU of 4° C. quenched sample/Total RFU of 4° C. unquenched sample). The % Internalization was determined from the following formula: (Total internalized RFU at 37° C./Total RFU at 37° C.)*100.
row,% Internalization,Molecule
1,71.6%,B2
2,54.2%,B3
3,90.0%,B4
4,58.2%,B5
5,57.0%,B7

# Same assay, conditions: 10 μg/mL antibody, 4° C.
row,Total Binding at 4° C.,Molecule
1,3702857,B2
2,1215319,B3
3,3077308,B4
4,2518361,B5
5,1930685,B7
6,482859,B8

# Same assay, conditions: 10 μg/mL antibody, 37° C.
Total Binding at 37° C.,Total Internalized RFU,Molecule
5608380,4016378 RFU,B2
1802404,977543 RFU,B3
7161570,6446236 RFU,B4
5917858,3444330 RFU,B5
6607625,3763127 RFU,B7
1151348,737425 RFU,B8
